Source: the supplement of paper PMC10567573

B1: DCAF4 (parent)
chain: TTKCVRQYEGHVNEYAYLPLHVHE
B2: ZNF449 (parent)
chain: RIHSGEEPHKCPECGKRFLRSSDL

Variants of: B1
Assay: protein stability index of a GFP-peptide fusion (GPS, HEK-293T) (PSI 1-6); higher = more stable
Conditions: c terminus: a fixed tail appended
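Further: lentivirally expressed fusions sorted by FACS into six bins by GFP to DsRed ratio, PSI derived from sequencing read proportions per bin multiplied by bin number.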

Protein stability index of substitutions, site by site:
Q7: D 2.8; M 2.19; E 2.96; G 2.13; F 1.87; S 2.75; H 2.64; W 1.88; N 2.54; C 2.15; T 2.97; K 2.77; I 2.17; A 2.52; R 2.28; L 2.28; V 2.24; Y 1.79; P 2.06
Y8: L 2.79; W 2.42; A 2.65; F 2.69; Q 3.39; S 3.19; R 2.94; T 3.15; N 3.31; M 2.89; G 3.12; V 3.17; H 2.64; I 2.82; K 3.52; D 3.75; C 2.66; P 2.42; E 4.03
C4: D 3.76; S 3.25; Y 2.48; R 2.69; H 3.19; A 3.14; G 2.67; T 3.42; P 3.1; K 2.83; W 2.29; V 3.08; Q 2.94; F 2.25; I 3.13; M 3.45; L 2.86; E 3.59; N 3.48
R6: P 2.26; M 2.38; A 3.02; L 2.18; F 1.8; D 2.87; S 2.01; N 2.95; W 1.73; I 2.11; V 2.1; K 2.63; C 2.53; H 2.52; Y 2.4; Q 3.31; G 2.58; T 2.49; E 3.12
T1: Y 1.69; V 2.22; Q 2.74; E 3.14; W 1.92; F 1.74; S 3.81; K 2.84; H 2.65; A 2.67; M 2.19; R 2.22; P 2.48; I 2; N 2.4; G 2.99; C 1.9; D 3.45; L 2.99
V12: D 3.19; Y 2.52; M 2.86; S 2.78; F 2.11; Q 2.58; T 2.85; G 3.13; E 3.35; C 2.48; I 2.52; H 2.71; W 2.07; L 2.76; R 2.6; A 3.03; K 3.33; N 2.98; P 2.69
E9: F 1.76; M 2.32; G 2.55; T 1.91; C 1.63; S 2.04; L 2.12; K 2.13; P 2.51; R 2.18; V 2.42; D 3.04; Q 2.52; N 2.52; I 1.87; Y 1.97; H 1.97; A 2.29; W 1.61
T2: E 3.23; Q 2.41; A 2.47; P 3.05; L 2.15; V 2.46; I 2.19; G 2.69; M 2.52; S 2.74; H 2.32; D 3.24; R 2.41; C 2.43; N 2.99; F 2.47; W 2.43; Y 2.01; K 2.64
N13: L 2.85; G 3.04; D 2.35; M 1.88; H 2.5; K 2.48; A 2.64; E 3.55; I 1.66; C 2.35; F 2.02; P 3.12
H11: W 1.81; N 2.96; R 2.44; L 1.95; S 2.6; M 2.26; E 3.17; T 3.25; V 3.56; K 2.66; C 2.1; I 2.75; A 2.7; Y 2.84; F 1.88; Q 2.53; G 2.38; D 2.88; P 3.25
V5: A 2.67; T 2.69; M 2.18; S 1.82; K 1.99; L 2.84; G 2.31; W 2.46; Y 1.82; E 3.29; F 2.24; C 2; Q 2.55; N 2.27; R 1.76; D 3.34; I 2.17; P 2.95; H 2.19
K3: S 2.71; W 1.82; L 2.6; C 2.62; E 3.58; P 3.58; I 1.73; F 1.55; V 2.02; N 2.98; R 2.12; Q 3.25; G 2.89; M 2.07; A 3.11; D 3.56; H 2.71; T 2.71; Y 1.6
G10: V 2.14; E 3.3; W 1.65; M 2.06; D 3.07; C 2.61; S 2.69; H 2.31; P 2.18; Y 2.29; L 2.11; F 1.66; T 2.57; R 2.3; K 3.44; N 2.11; Q 2.24; I 1.43; A 2.37

Variants of: B2
Assay: as above
Conditions: c terminus: a fixed tail appended

Protein stability index: each site, then its substitutions
D23: C 2.75; Q 1.86; V 1.73; H 3.41; F 2.04; I 1.61; Y 1.72; P 2.29; K 2.77; L 2.16; R 1.51; S 2.46; A 2.23; E 2.52; T 2.7; N 2.8
L19: Y 3.23; R 3.74; Q 4.41; S 4.05; W 3.09; T 3.65; V 3.32
R20: H 2.89; E 3.91; T 3.17; Y 2.86; I 2.91; L 3.32; D 3.47; N 4.21; M 3.41; Q 4.3; P 3.99; K 3.25; F 3.35; V 2.27; S 3.82; W 2.31; A 4.09; C 3.88
S21: N 3.56; C 3.69; Y 3.22; F 2.15; T 3.56; A 3.31; K 4.17; D 4.25; P 2.86; H 3.44; M 2.24; L 2.48; I 3.04; Q 2.75; R 2.65; G 3.75
L24: D 4.61; P 4.12; Q 4.91; A 3.92; R 2.29; Y 3.29; G 3.82; F 3.3; M 3.41; S 3.88; H 3.63; I 2.5; T 3.79; C 3.63; K 3.96; V 3.31; W 2.93; N 3.89; E 4.42
S22: H 3.56; L 2.67; Y 3.01; C 3.94; W 1.94; I 2.77; T 3.05; A 2.93; G 3.74; K 2.57; M 2.28; F 2.77; V 3.58; E 3.62; P 3.5; D 4.06; N 3.3; R 3.02
